{"source": "patent EP4782541A1", "about": "(Nanjing Probio Biotech Co., Ltd., dated 2026)", "key": {"[1]": {"target": "human ROR1 (on CHO-K1/ROR1 cells and ROR1 tumour cell lines) (human) (UniProt Q01973)", "sequence (Q01973 30-937)": "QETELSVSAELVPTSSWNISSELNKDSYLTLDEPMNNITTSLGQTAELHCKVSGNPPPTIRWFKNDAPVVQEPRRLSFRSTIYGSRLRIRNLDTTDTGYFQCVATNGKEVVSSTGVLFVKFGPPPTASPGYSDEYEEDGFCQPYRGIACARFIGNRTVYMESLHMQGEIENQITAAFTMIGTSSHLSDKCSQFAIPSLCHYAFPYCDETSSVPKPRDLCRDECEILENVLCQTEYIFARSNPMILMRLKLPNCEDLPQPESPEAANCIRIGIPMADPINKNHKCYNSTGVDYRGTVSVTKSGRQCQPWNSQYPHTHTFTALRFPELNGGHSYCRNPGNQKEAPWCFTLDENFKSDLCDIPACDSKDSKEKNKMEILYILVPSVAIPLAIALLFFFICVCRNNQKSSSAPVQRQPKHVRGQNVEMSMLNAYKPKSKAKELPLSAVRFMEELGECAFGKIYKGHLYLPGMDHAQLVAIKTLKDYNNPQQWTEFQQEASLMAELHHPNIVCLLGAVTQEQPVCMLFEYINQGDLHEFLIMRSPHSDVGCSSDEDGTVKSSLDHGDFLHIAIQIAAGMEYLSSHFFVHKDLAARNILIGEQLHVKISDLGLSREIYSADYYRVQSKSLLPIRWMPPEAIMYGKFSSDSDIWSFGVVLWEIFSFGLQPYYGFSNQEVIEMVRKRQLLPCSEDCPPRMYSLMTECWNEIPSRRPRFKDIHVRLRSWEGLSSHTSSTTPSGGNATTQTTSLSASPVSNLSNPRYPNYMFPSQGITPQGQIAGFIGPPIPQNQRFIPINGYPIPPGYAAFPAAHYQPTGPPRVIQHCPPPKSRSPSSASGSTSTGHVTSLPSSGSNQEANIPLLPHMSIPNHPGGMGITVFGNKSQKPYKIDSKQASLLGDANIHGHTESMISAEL", "assay": "cell-based or functional assay"}, "human ROR1 protein [2]": {"target": "T1, human ROR1 protein (human, UniProt Q01973 30-403, limits assumed)", "T1 construct": "Recombinant antigen of the SPR assay; also called ROR1 (SPR ligand)", "T1 sequence (Q01973 30-403 limits assumed)": "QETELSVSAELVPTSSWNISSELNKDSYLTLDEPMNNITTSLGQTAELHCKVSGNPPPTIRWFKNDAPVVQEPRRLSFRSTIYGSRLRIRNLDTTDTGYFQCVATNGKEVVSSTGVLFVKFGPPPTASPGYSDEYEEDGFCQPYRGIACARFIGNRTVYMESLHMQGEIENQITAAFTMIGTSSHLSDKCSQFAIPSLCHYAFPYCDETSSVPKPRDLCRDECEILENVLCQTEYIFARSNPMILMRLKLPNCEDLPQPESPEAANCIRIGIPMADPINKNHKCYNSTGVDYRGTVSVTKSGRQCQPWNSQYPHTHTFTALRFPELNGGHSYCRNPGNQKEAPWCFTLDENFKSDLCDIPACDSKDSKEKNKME", "assay": "SPR (Biacore 8K); human ROR1 amine-coupled at 2.50 ug/mL as ligand, antibody as analyte"}, "human ROR1 protein [3]": {"target": "T1, human ROR1 protein", "assay": "SPR (Biacore 8K); human ROR1 amine-coupled at 12.50 ug/mL as ligand, antibody as analyte"}, "human ROR1 protein [4]": {"target": "T1, human ROR1 protein", "assay": "SPR (Biacore 8K); human ROR1 amine-coupled at 0.05 ug/mL as ligand, antibody as analyte"}, "human ROR1 protein [5]": {"target": "T1, human ROR1 protein", "assay": "SPR (Biacore 8K); human ROR1 amine-coupled at 0.50 ug/mL as ligand, antibody as analyte"}, "human ROR1 protein [6]": {"target": "T1, human ROR1 protein", "assay": "SPR (Biacore 8K); human ROR1 amine-coupled at 0.10 ug/mL as ligand, antibody as analyte"}, "human ROR1 protein [7]": {"target": "T1, human ROR1 protein", "assay": "SPR (Biacore 8K); human ROR1 amine-coupled at 62.50 ug/mL as ligand, antibody as analyte"}, "[8]": {"target": "T2, human ROR1 (on CHO-K1/ROR1 cells and ROR1 tumour cell lines) (human, UniProt Q01973 30-937)", "T2 construct": "whole, on cells; also called receptor tyrosine kinase-like orphan receptor 1", "T2 sequence (Q01973 30-937)": "as the sequence (Q01973 30-937) above", "assay": "flow cytometry on CHO-K1/ROR1 cells overexpressing human ROR1"}, "[9]": {"target": "T3, human CD3 (on Jurkat cells) (human, UniProt P07766 23-207; P09693 23-182; P04234 22-171)", "T3 construct": "whole, on cells", "T3 sequence (P07766 23-207, chain 1 of 3)": "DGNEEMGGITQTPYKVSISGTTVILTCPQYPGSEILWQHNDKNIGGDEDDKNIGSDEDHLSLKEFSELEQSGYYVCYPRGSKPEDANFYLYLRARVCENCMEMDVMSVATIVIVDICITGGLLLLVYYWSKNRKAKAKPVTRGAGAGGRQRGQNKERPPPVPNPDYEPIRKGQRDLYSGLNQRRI", "T3 sequence (P09693 23-182, chain 2 of 3)": "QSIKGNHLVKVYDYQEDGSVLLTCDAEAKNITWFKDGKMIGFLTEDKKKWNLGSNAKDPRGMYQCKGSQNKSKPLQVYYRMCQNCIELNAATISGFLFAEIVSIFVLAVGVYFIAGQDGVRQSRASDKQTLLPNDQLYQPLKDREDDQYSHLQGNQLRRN", "T3 sequence (P04234 22-171, chain 3 of 3)": "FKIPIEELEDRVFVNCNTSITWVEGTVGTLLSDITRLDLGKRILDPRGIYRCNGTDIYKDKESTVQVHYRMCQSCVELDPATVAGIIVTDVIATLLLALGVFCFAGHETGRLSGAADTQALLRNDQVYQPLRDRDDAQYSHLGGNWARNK", "assay": "flow cytometry on Jurkat cells expressing human CD3"}}, "data": [{"molecule": "NVG-111 (bispecific antibody)", "values": [{"measurement": "EC50 of T cell activation based on reporter gene (luciferase), target cells A375", "setting": "[1]", "result": 32.9, "unit": "pM"}, {"measurement": "EC50 of T cell activation based on reporter gene (luciferase), target cells Jeko-1", "setting": "[1]", "result": 35.8, "unit": "pM"}, {"measurement": "EC50 of T cell activation based on reporter gene (luciferase), target cells MDA-MB-231", "setting": "[1]", "result": 10, "unit": "pM"}, {"measurement": "Kd", "setting": "human ROR1 protein [2]", "result": 1640, "unit": "pM"}, {"measurement": "koff", "setting": "human ROR1 protein [2]", "result": 0.00118, "unit": "s⁻¹"}, {"measurement": "kon", "setting": "human ROR1 protein [2]", "result": 723000, "unit": "M⁻¹ s⁻¹"}, {"measurement": "Kd", "setting": "human ROR1 protein [3]", "result": 1490, "unit": "pM"}, {"measurement": "koff", "setting": "human ROR1 protein [3]", "result": 0.00109, "unit": "s⁻¹"}, {"measurement": "kon", "setting": "human ROR1 protein [3]", "result": 733000, "unit": "M⁻¹ s⁻¹"}, {"measurement": "Kd", "setting": "human ROR1 protein [4]", "result": 2590, "unit": "pM"}, {"measurement": "koff", "setting": "human ROR1 protein [4]", "result": 0.00138, "unit": "s⁻¹"}, {"measurement": "kon", "setting": "human ROR1 protein [4]", "result": 532000, "unit": "M⁻¹ s⁻¹"}, {"measurement": "Kd", "setting": "human ROR1 protein [5]", "result": 1920, "unit": "pM"}, {"measurement": "koff", "setting": "human ROR1 protein [5]", "result": 0.00122, "unit": "s⁻¹"}, {"measurement": "kon", "setting": "human ROR1 protein [5]", "result": 632000, "unit": "M⁻¹ s⁻¹"}, {"measurement": "Kd", "setting": "human ROR1 protein [6]", "result": 1820, "unit": "pM"}, {"measurement": "koff", "setting": "human ROR1 protein [6]", "result": 0.00113, "unit": "s⁻¹"}, {"measurement": "kon", "setting": "human ROR1 protein [6]", "result": 622000, "unit": "M⁻¹ s⁻¹"}, {"measurement": "Kd", "setting": "human ROR1 protein [7]", "result": 1710, "unit": "pM"}, {"measurement": "koff", "setting": "human ROR1 protein [7]", "result": 0.00101, "unit": "s⁻¹"}, {"measurement": "kon", "setting": "human ROR1 protein [7]", "result": 593000, "unit": "M⁻¹ s⁻¹"}]}, {"molecule": "BsAb-1 (bispecific antibody, human IgG1, lambda, human IgG1 Fc with L234S/L235T/G236R; also called BsAb-01) EVQLVESGGGLVQPGGSLRLSCAASGFISRFYAMGWYRQAPGKQRELVARISSMGWTYYADSVKGRFTISIDNSKNTLYLQMNSLRAEDTAVYYCNARNLWGQGTLVTVSSDKTHTCPPCPAPESTRGPSVFLFPPKPKDTLMISRTPEVTCVVVDVSHEDPEVKFNWYVDGVEVHNAKTKPREEQYNSTYRVVSVLTVLHQDWLNGKEYKCKVSNKALPAPIEKTISKAKGQPREPQVCTLPPSRDELTKNQVSLSCAVKGFYPSDIAVEWESNGQPENNYKTTPPVLDSDGSFFLVSKLTVDKSRWQQGNVFSCSVMHEALHNHYTQKSLSLSPGK heavy: EVQLVESGGGLVQPGRSLRLSCAASGFTFNTYAMNWVRQAPGKGLEWVARIRSKYNNYATYYADSVKDRFTISRDDSKSIAYLQMNSLKTEDTAVYYCVRHGNFGNSYVSWFAYWGQGTLVTVSSASTKGPSVFPLAPSSKSTSGGTAALGCLVKDYFPEPVTVSWNSGALTSGVHTFPAVLQSSGLYSLSSVVTVPSSSLGTQTYICNVNHKPSNTKVDKKVEPKSCDKTHTCPPCPAPESTRGPSVFLFPPKPKDTLMISRTPEVTCVVVDVSHEDPEVKFNWYVDGVEVHNAKTKPREEQYNSTYRVVSVLTVLHQDWLNGKEYKCKVSNKALPAPIEKTISKAKGQPREPQVYTLPPCRDELTKNQVSLWCLVKGFYPSDIAVEWESNGQPENNYKTTPPVLDSDGSFFLYSKLTVDKSRWQQGNVFSCSVMHEALHNHYTQKSLSLSPGK light: QTVVTQEPSLTVSPGGTVTLTCRSSTGAVTTSNYANWVQQKPGQAPRGLIGGTNKRAPGVPARFSGSLLGGKAALTLSGVQPEDEAEYFCALWYSNLWVFGGGTKLTVLGQPKAAPSVTLFPPSSEELQANKATLVCLISDFYPGAVTVAWKADSSPVKAGVETTTPSKQSNNKYAASSYLSLTPEQWKSHRSYSCQVTHEGSTVEKTVAPTECS", "values": [{"measurement": "EC50", "setting": "[8]", "result": 287, "unit": "pM"}, {"measurement": "EC50", "setting": "[9]", "result": 384, "unit": "pM"}]}, {"molecule": "BsAb-5 (bispecific antibody, human IgG1, lambda, also called BsAb-05) EVQLVESGGGLVQPGGSLRLSCAASGFISRFYAMGWYRQAPGKQRELVARISSMGWTYYADSVKGRFTISIDNSKNTLYLQMNSLRAEDTAVYYCNARNLWGQGTLVTVSSGGGGSGGGGSGGGGSEVQLVESGGGLVQPGGSLRLSCAASGFISRFYAMGWYRQAPGKQRELVARISSMGWTYYADSVKGRFTISIDNSKNTLYLQMNSLRAEDTAVYYCNARNLWGQGTLVTVSSDKTHTCPPCPAPESTRGPSVFLFPPKPKDTLMISRTPEVTCVVVDVSHEDPEVKFNWYVDGVEVHNAKTKPREEQYNSTYRVVSVLTVLHQDWLNGKEYKCKVSNKALPAPIEKTISKAKGQPREPQVCTLPPSRDELTKNQVSLSCAVKGFYPSDIAVEWESNGQPENNYKTTPPVLDSDGSFFLVSKLTVDKSRWQQGNVFSCSVMHEALHNHYTQKSLSLSPGK heavy: EVQLVESGGGLVQPGRSLRLSCAASGFTFNTYAMNWVRQAPGKGLEWVARIRSKYNNYATYYADSVKDRFTISRDDSKSIAYLQMNSLKTEDTAVYYCVRHGNFGNSYVSWFAYWGQGTLVTVSSASTKGPSVFPLAPSSKSTSGGTAALGCLVKDYFPEPVTVSWNSGALTSGVHTFPAVLQSSGLYSLSSVVTVPSSSLGTQTYICNVNHKPSNTKVDKKVEPKSCDKTHTCPPCPAPESTRGPSVFLFPPKPKDTLMISRTPEVTCVVVDVSHEDPEVKFNWYVDGVEVHNAKTKPREEQYNSTYRVVSVLTVLHQDWLNGKEYKCKVSNKALPAPIEKTISKAKGQPREPQVYTLPPCRDELTKNQVSLWCLVKGFYPSDIAVEWESNGQPENNYKTTPPVLDSDGSFFLYSKLTVDKSRWQQGNVFSCSVMHEALHNHYTQKSLSLSPGK light: QTVVTQEPSLTVSPGGTVTLTCRSSTGAVTTSNYANWVQQKPGQAPRGLIGGTNKRAPGVPARFSGSLLGGKAALTLSGVQPEDEAEYFCALWYSNLWVFGGGTKLTVLGQPKAAPSVTLFPPSSEELQANKATLVCLISDFYPGAVTVAWKADSSPVKAGVETTTPSKQSNNKYAASSYLSLTPEQWKSHRSYSCQVTHEGSTVEKTVAPTECS", "values": [{"measurement": "EC50", "setting": "[8]", "result": 109, "unit": "pM"}, {"measurement": "EC50", "setting": "[9]", "result": 913, "unit": "pM"}]}, {"molecule": "BsAb-8 (bispecific antibody, human IgG1, lambda, also called BsAb-08) EVQLVESGGGLVQPGGSLRLSCAASGRSFSSFQMGWFRQAPGKEREFVAASGWSGGPTYYWDSVIGRFTISTDNSKNTLYLQMNSLRAEDTAVYYCYEDRVLSGRPVRYWGQGTLVTVSSGGGGSGGGGSGGGGSEVQLVESGGGLVQPGGSLRLSCAASGRSFSSFQMGWFRQAPGKEREFVAASGWSGGPTYYWDSVIGRFTISTDNSKNTLYLQMNSLRAEDTAVYYCYEDRVLSGRPVRYWGQGTLVTVSSDKTHTCPPCPAPESTRGPSVFLFPPKPKDTLMISRTPEVTCVVVDVSHEDPEVKFNWYVDGVEVHNAKTKPREEQYNSTYRVVSVLTVLHQDWLNGKEYKCKVSNKALPAPIEKTISKAKGQPREPQVCTLPPSRDELTKNQVSLSCAVKGFYPSDIAVEWESNGQPENNYKTTPPVLDSDGSFFLVSKLTVDKSRWQQGNVFSCSVMHEALHNHYTQKSLSLSPGK heavy: EVQLVESGGGLVQPGRSLRLSCAASGFTFNTYAMNWVRQAPGKGLEWVARIRSKYNNYATYYADSVKDRFTISRDDSKSIAYLQMNSLKTEDTAVYYCVRHGNFGNSYVSWFAYWGQGTLVTVSSASTKGPSVFPLAPSSKSTSGGTAALGCLVKDYFPEPVTVSWNSGALTSGVHTFPAVLQSSGLYSLSSVVTVPSSSLGTQTYICNVNHKPSNTKVDKKVEPKSCDKTHTCPPCPAPESTRGPSVFLFPPKPKDTLMISRTPEVTCVVVDVSHEDPEVKFNWYVDGVEVHNAKTKPREEQYNSTYRVVSVLTVLHQDWLNGKEYKCKVSNKALPAPIEKTISKAKGQPREPQVYTLPPCRDELTKNQVSLWCLVKGFYPSDIAVEWESNGQPENNYKTTPPVLDSDGSFFLYSKLTVDKSRWQQGNVFSCSVMHEALHNHYTQKSLSLSPGK light: QTVVTQEPSLTVSPGGTVTLTCRSSTGAVTTSNYANWVQQKPGQAPRGLIGGTNKRAPGVPARFSGSLLGGKAALTLSGVQPEDEAEYFCALWYSNLWVFGGGTKLTVLGQPKAAPSVTLFPPSSEELQANKATLVCLISDFYPGAVTVAWKADSSPVKAGVETTTPSKQSNNKYAASSYLSLTPEQWKSHRSYSCQVTHEGSTVEKTVAPTECS", "values": [{"measurement": "EC50", "setting": "[8]", "result": 280, "unit": "pM"}, {"measurement": "EC50", "setting": "[9]", "result": 838, "unit": "pM"}]}, {"molecule": "BsAb-4 (bispecific antibody, human IgG1, lambda, also called BsAb-04) EVQLVESGGGLVQPGGSLRLSCAASGRSFSSFQMGWFRQAPGKEREFVAASGWSGGPTYYWDSVIGRFTISTDNSKNTLYLQMNSLRAEDTAVYYCYEDRVLSGRPVRYWGQGTLVTVSSDKTHTCPPCPAPESTRGPSVFLFPPKPKDTLMISRTPEVTCVVVDVSHEDPEVKFNWYVDGVEVHNAKTKPREEQYNSTYRVVSVLTVLHQDWLNGKEYKCKVSNKALPAPIEKTISKAKGQPREPQVCTLPPSRDELTKNQVSLSCAVKGFYPSDIAVEWESNGQPENNYKTTPPVLDSDGSFFLVSKLTVDKSRWQQGNVFSCSVMHEALHNHYTQKSLSLSPGK heavy: EVQLVESGGGLVQPGRSLRLSCAASGFTFNTYAMNWVRQAPGKGLEWVARIRSKYNNYATYYADSVKDRFTISRDDSKSIAYLQMNSLKTEDTAVYYCVRHGNFGNSYVSWFAYWGQGTLVTVSSASTKGPSVFPLAPSSKSTSGGTAALGCLVKDYFPEPVTVSWNSGALTSGVHTFPAVLQSSGLYSLSSVVTVPSSSLGTQTYICNVNHKPSNTKVDKKVEPKSCDKTHTCPPCPAPESTRGPSVFLFPPKPKDTLMISRTPEVTCVVVDVSHEDPEVKFNWYVDGVEVHNAKTKPREEQYNSTYRVVSVLTVLHQDWLNGKEYKCKVSNKALPAPIEKTISKAKGQPREPQVYTLPPCRDELTKNQVSLWCLVKGFYPSDIAVEWESNGQPENNYKTTPPVLDSDGSFFLYSKLTVDKSRWQQGNVFSCSVMHEALHNHYTQKSLSLSPGK light: QTVVTQEPSLTVSPGGTVTLTCRSSTGAVTTSNYANWVQQKPGQAPRGLIGGTNKRAPGVPARFSGSLLGGKAALTLSGVQPEDEAEYFCALWYSNLWVFGGGTKLTVLGQPKAAPSVTLFPPSSEELQANKATLVCLISDFYPGAVTVAWKADSSPVKAGVETTTPSKQSNNKYAASSYLSLTPEQWKSHRSYSCQVTHEGSTVEKTVAPTECS", "values": [{"measurement": "EC50", "setting": "[8]", "result": 373, "unit": "pM"}, {"measurement": "EC50", "setting": "[9]", "result": 629, "unit": "pM"}]}]}
